Each block holds one binder with its values, some of them ahead of it.
Columns and labels:
[1] = target: T1, recombinant human FGFR1/Fc chimera (Sino Biological 10616-H03H) (human, UniProt P11362 22-376); test: SPR
T1 chain: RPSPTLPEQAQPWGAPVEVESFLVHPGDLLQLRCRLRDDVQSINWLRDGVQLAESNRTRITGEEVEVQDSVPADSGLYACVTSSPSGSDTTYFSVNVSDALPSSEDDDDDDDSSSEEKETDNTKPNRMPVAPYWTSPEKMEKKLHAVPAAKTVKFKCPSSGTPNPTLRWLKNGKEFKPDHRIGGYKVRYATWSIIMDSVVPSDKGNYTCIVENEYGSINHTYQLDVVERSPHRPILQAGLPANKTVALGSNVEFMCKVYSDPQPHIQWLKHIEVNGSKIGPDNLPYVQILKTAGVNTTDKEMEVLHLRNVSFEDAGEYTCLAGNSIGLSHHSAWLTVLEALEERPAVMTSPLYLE

[2] = target: recombinant human FGFR2/Fc chimera (Sino Biological 10824-H03H) (human, UniProt P21802 22-377); test: SPR
Chain of recombinant human FGFR2/Fc chimera (Sino Biological 10824-H03H) (P21802 22-377): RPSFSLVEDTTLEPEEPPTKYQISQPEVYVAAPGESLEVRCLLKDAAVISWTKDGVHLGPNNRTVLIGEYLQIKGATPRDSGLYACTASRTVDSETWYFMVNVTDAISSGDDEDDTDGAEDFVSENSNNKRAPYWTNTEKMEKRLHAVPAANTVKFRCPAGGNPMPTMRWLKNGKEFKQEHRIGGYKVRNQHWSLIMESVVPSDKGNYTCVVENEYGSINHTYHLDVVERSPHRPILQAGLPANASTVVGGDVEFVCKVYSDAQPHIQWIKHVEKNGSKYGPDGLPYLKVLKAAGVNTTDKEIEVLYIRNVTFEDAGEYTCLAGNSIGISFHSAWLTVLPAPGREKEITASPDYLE

Kd [1]: 39.2 nM
Kd [2]: 31.5 nM
B1: recombinant FGF8a (R&D Systems 4745-F8-050) (ligand)
chain: QHVREQSLVTDQLSRRLIRTYQLYSRTSGKHVQVLANKRINAMAEDGDPFAKLIVETDTFGSRVRVRGAETGLYICMNKKGKLIAKSNGKGKDCVFTEIVLENNYTALQNAKYEGWYMAFTRKGRPRKGSKTRQHQREVHFMKRLPRGHHTTEQSLRFEFLNYPPFTRSLRGSQRTWAPEPR

Kd [1]: 3.61 nM
Kd [2]: 6.94 nM
B2: recombinant FGF4 (Peprotech AF-100-31) (ligand)
chain: APTAPNGTLEAELERRWESLVALSLARLPVAAQPKEAAVQSGAGDYLLGIKRLRRLYCNVGIGFHLQALPDGRIGGAHADTRDSLLELSPVERGVVSIFGVASRFFVAMSSKGKLYGSPFFTDECTFKEILLPNNYNAYESYKYPGMFIALSKNGKTKKGNRVSPTMKVTHFLPRL

— paper PMC5467231 (2017)
